Measured values from patent publication US5985836A, “Alpha-1 proteinase inhibitor binding peptides” (Bayer Corporation, priority 1998, dated 1999).
Ends that are not written are not given here.

Tests used:
A1PI [1] = target: T1, A1PI (Homo sapiens, UniProt P01009); assay: Purification of A1PI from Effluent II+III on peptide column, A1PI mass balance; type: binding; conditions: 1 ml Eff. II+III, 4° C.; for Mass A1PI per Eluate Fraction, 1M NaCl / Mass A1PI per Eluate Fraction, 2% Acetic Acid / Mass A1PI per Eluate Fraction, Flowthrough: * Below detection limit
T1 construct: Human plasma is currently the only approved source of therapeutic AlPI
T1 sequence (P01009 25-418): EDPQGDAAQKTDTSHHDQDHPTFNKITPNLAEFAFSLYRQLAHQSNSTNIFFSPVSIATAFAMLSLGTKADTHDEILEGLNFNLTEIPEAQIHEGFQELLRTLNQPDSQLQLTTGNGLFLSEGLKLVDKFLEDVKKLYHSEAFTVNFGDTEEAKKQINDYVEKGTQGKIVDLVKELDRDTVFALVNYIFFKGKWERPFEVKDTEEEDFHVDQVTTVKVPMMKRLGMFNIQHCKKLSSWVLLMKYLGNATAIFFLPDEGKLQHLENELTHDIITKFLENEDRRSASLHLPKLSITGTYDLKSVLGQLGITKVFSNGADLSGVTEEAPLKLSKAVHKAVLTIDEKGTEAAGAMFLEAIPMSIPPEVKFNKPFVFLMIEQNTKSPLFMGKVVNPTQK
Method: (§1) Sequences 1-11 and 15 were assayed with Effluent II+III (Eff. II+III). Eff. II+III is a process intermediate in the Cohn plasma fractionation process. The feed stream contains 20% (by volume) ethanol, 20-25 mg/ml hSA and approximately 1 mg/ml AlPI. The stream also contains other proteins including anti-thrombin III (AT3), immunoglobin G (IgG), immunoglobin A (IgA), apolipoprotein alpha-1 (Apo A-1), transferrin (Trf), haptoglobin (Hpt), and alpha-1 acid glycoprotein (AAG) at concentrations ranging from 0.1-1 mg/ml.
(§2) The columns were assayed using the same technique as the hSA+AlPI experiments, allowing for a 10 minute residence time followed by a constant flow rate of 865 μl/min with step elutions of 1M NaCl, 3M NaCl, and 2% acetic acid. All experiments were conducted at 4° C. The mass balances for the injection of 1 ml Eff. […] The AlPI was enriched from 3% of the total protein in the feed to upwards of 50% in the acid eluate.

A1PI [2] = target: T1, A1PI; assay: A1PI binding on peptide-resin column, injection of 1 mg A1PI in equilibration buffer; conditions: for % of Total A1PI Eluted by Fraction (Based on Absorbance at 280 nm), 1M NaCl / % of Total A1PI Eluted by Fraction (Based on Absorbance at 280 nm), 2% Acetic Acid / % of Total A1PI Eluted by Fraction (Based on Absorbance at 280 nm), Flowthrough: 1 mg A1PI
Outline: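 Peptides synthesized on A-Totda-Toyopearl chelate resin (0.1 mmole/g) packed in 0.4×5 cm columns; 1 mg A1PI injected in equilibration buffer at 4 °C or 20 °C, 865 or 523 μl/min. Flowthrough, 1M/3M NaCl washes and 2% acetic acid eluate quantified by A280 or immunonephelometry as percent of total eluted.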

Immunoglobulin A (IgA) = assay: Purification from Effluent II+III, IgA mass balance; type: binding, human; conditions: 1 ml Eff. II+III, 4° C.
Method: as §1, §2

A1PI [3] = target: T1, A1PI; assay: A1PI purification from 5 mg hSA + 1 mg A1PI on peptide column, A1PI mass balance; type: binding; conditions: A1PI, 5 mg hSA + 1 mg A1PI; for Percent Eluted by Fraction, 1M NaCl / Percent Eluted by Fraction, 2% Ac. Acid / Percent Eluted by Fraction, 3M NaCl / Percent Eluted by Fraction, Flow: relative to total eluted
Method: Confirmatory binding assays were performed in a column chromatographic format on a microbore HPLC using individual peptide sequences synthesized directly onto the Toyopearl 650 M Chelate resin which had been modified with Totda followed by an alanine residue (A-Totda-Toyopearl), at a final substitution density of 0.1 mmole/g resin. The resin was packed into 0.4×5 cm columns (Thomson, Springfield, Va.) and tested on the Michrom HPLC system (Michrom BioResources, Auburn, Calif.). The elution program for all trials utilized the following method. The column was pre-equilibrated with equilibration buffer (as above). 1 ml of sample was injected and allowed sufficient time to flowthrough the column using equilibration buffer. The column was then washed with step elutions of 1M NaCl and 3M NaCl in equilibration buffer. The column was exposed to equilibration buffer with 0.1M NaCl. Any remaining protein was eluted with elution buffer (2% by volume glacial acetic acid in water).
A Gilson FC204 fraction collector at the HPLC outlet collected individual eluates for further analysis. Fractions collected from the 2% acetic acid eluates were neutralized with 2M Tris, pH 10.5 to bring the pH to neutrality. The protein samples were reconstituted in equilibration buffer unless otherwise stated. The samples were analyzed by the integration of the absorbance at 280 nm or by immunonephelometry. The specific method of determination is presented for each figure.
Columns were assayed with a mixture of 5 mg human serum albumin (hSA)+1 mg AlPI at 4° C. (Table 4, Seq. ID 1-11, 15, 17) and 20° C. (Table 5, Seq. ID 1-10, 13, 15, 17). The chromatography method was modified to provide for a 10 minute residence time of sample in the column by decreasing the flow to 17 μl/min (10 cm/hr) upon injection. Following the incubation, the flow was set at 865 μl/min (413 cm/hr) for the step elutions of 1M NaCl, 3M NaCl, and 2% acetic acid. The mass balances presented are based upon immunonephelometry. The Percent Eluted value is protein-specific and based on the amount of the protein eluted in a […]

[4] = target: T2, apolipoprotein alpha-1 (Apo A-1) (Homo sapiens, UniProt P02647); assay: Purification from Effluent II+III, Apo A-1 mass balance; type: binding; conditions: 1 ml Eff. II+III, 4° C.
T2 construct: Eff; II+III is a process intermediate in the Cohn plasma fractionation process; tissue Bayer Corporation (Clayton, N.C.); host or cells: plasma fraction: Cohn Effluent II+III
T2 sequence (P02647 19-267): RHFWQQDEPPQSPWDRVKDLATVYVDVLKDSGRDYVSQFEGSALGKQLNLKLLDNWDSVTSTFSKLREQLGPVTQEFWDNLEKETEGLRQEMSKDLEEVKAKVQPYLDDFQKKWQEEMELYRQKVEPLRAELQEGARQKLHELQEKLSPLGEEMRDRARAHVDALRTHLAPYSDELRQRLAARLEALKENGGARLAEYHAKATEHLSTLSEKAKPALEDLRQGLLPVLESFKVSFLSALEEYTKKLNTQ
Method: as §1, §2

[5] = A1PI, * as in Tables 4, 5 (below detection limit)
[6] = * as in Tables 4, 5 (below detection limit)
[7] = 20° C., * Below detection limit
[8] = 1 mg A1PI in equilibration buffer, 4° C.
[9] = 1 mg A1PI in equilibration buffer, 20° C.

## V I S L V R: VIWLVR with Trp at position 3 replaced by Ser (VISLVR)
A1PI [1]; Table 11
  Mass A1PI per Eluate Fraction, 1M NaCl: 0.14 mg
  Mass A1PI per Eluate Fraction, 2% Acetic Acid: 0.26 mg
  Mass A1PI per Eluate Fraction, Flowthrough: 0.14 mg
A1PI [1]; Table 11, A1PI
  Percent Eluted by Fraction, 1M NaCl: 26%
  Percent Eluted by Fraction, 2% Acetic Acid: 49%
  Percent Eluted by Fraction, Flowthrough: 25%
A1PI [2]; Trp position mutations, 4° C.
  % of Total A1PI Eluted by Fraction (Based on Absorbance at 280 nm), 1M NaCl: 100%
  % of Total A1PI Eluted by Fraction (Based on Absorbance at 280 nm), 2% Acetic Acid: 0%
  % of Total A1PI Eluted by Fraction (Based on Absorbance at 280 nm), Flowthrough: 0%
A1PI [2]; Trp position mutations, 20° C.
  % of Total A1PI Eluted by Fraction (Based on Absorbance at 280 nm), 1M NaCl: 75%
  % of Total A1PI Eluted by Fraction (Based on Absorbance at 280 nm), 2% Acetic Acid: 14%
  % of Total A1PI Eluted by Fraction (Based on Absorbance at 280 nm), Flowthrough: 11%

## S I F L V R: point mutation of VIFLVR, position 1 (SIFLVR)
A1PI [1]; Table 13
  Mass A1PI per Eluate Fraction, 1M NaCl: 0.04 mg
  Mass A1PI per Eluate Fraction, 2% Acetic Acid: 0.52 mg
  Mass A1PI per Eluate Fraction, Flowthrough: 0.61 mg
A1PI [1]; Table 13, A1PI
  Percent Eluted by Fraction, 1M NaCl: 3%
  Percent Eluted by Fraction, 2% Acetic Acid: 44%
  Percent Eluted by Fraction, Flowthrough: 52%
A1PI [2]; VIFLVR point mutations, 4° C.
  % of Total A1PI Eluted by Fraction (Based on Absorbance at 280 nm), 1M NaCl: 7%
  % of Total A1PI Eluted by Fraction (Based on Absorbance at 280 nm), 2% Acetic Acid: 93%
  % of Total A1PI Eluted by Fraction (Based on Absorbance at 280 nm), Flowthrough: 0%
A1PI [2]; VIFLVR point mutations, 20° C.
  % of Total A1PI Eluted by Fraction (Based on Absorbance at 280 nm), 1M NaCl: 6%
  % of Total A1PI Eluted by Fraction (Based on Absorbance at 280 nm), 2% Acetic Acid: 81%
  % of Total A1PI Eluted by Fraction (Based on Absorbance at 280 nm), Flowthrough: 13%

## V I V L V R: VIWLVR with Trp at position 3 replaced by Val (VIVLVR)
A1PI [1]; Table 11
  Mass A1PI per Eluate Fraction, 1M NaCl: 0.04 mg
  Mass A1PI per Eluate Fraction, 2% Acetic Acid: 0.50 mg
  Mass A1PI per Eluate Fraction, Flowthrough: 0.31 mg
A1PI [1]; Table 11, A1PI
  Percent Eluted by Fraction, 1M NaCl: 4%
  Percent Eluted by Fraction, 2% Acetic Acid: 59%
  Percent Eluted by Fraction, Flowthrough: 37%
A1PI [2]; Trp position mutations, 4° C.
  % of Total A1PI Eluted by Fraction (Based on Absorbance at 280 nm), 1M NaCl: 5%
  % of Total A1PI Eluted by Fraction (Based on Absorbance at 280 nm), 2% Acetic Acid: 95%
  % of Total A1PI Eluted by Fraction (Based on Absorbance at 280 nm), Flowthrough: 0%

## YKFRFW
A1PI [1]; A1PI
  Percent Eluted by Fraction, 1M NaCl: 5%
  Percent Eluted by Fraction, 2% Acetic Acid: 81%
  Percent Eluted by Fraction, 3M NaCl: 0%
  Percent Eluted by Fraction, Flow: 14%
A1PI [1]; [5]
  Mass Protein per Eluate Fraction, 1M NaCl: 0.06 mg
  Mass Protein per Eluate Fraction, 2% Acetic Acid: 0.92 mg
  Mass Protein per Eluate Fraction, Flow: 0.16 mg
Immunoglobulin A (IgA)
  Percent Eluted by Fraction, 1M NaCl: 33%
  Percent Eluted by Fraction, 2% Acetic Acid: 30%
  Percent Eluted by Fraction, 3M NaCl: 0%
  Percent Eluted by Fraction, Flow: 37%
Immunoglobulin A (IgA); [6]
  Mass Protein per Eluate Fraction, 1M NaCl: 0.11 mg
  Mass Protein per Eluate Fraction, 2% Acetic Acid: 0.10 mg
  Mass Protein per Eluate Fraction, Flow: 0.13 mg
A1PI [3]; 4° C., * Below detection limit
  Mass Protein per Eluate Fraction, 1M NaCl: 0.28 mg
  Mass Protein per Eluate Fraction, 2% Ac. Acid: 0.46 mg
  Mass Protein per Eluate Fraction, 3M NaCl: 0.04 mg
A1PI [3]; 4° C.
  Percent Eluted by Fraction, 1M NaCl: 36%
  Percent Eluted by Fraction, 2% Ac. Acid: 60%
  Percent Eluted by Fraction, 3M NaCl: 5%
  Percent Eluted by Fraction, Flow: 0%
A1PI [3]; [7]
  Mass Protein per Eluate Fraction, 1M NaCl: 0.16 mg
  Mass Protein per Eluate Fraction, 2% Ac. Acid: 0.30 mg
  Mass Protein per Eluate Fraction, Flow: 0.41 mg
A1PI [3]; 20° C.
  Percent Eluted by Fraction, 1M NaCl: 18%
  Percent Eluted by Fraction, 2% Ac. Acid: 34%
  Percent Eluted by Fraction, 3M NaCl: 0%
  Percent Eluted by Fraction, Flow: 48%
[4]
  Percent Eluted by Fraction, 1M NaCl: 0%
  Percent Eluted by Fraction, 2% Acetic Acid: 100%
  Percent Eluted by Fraction, 3M NaCl: 0%
  Percent Eluted by Fraction, Flow: 0%
[4]; [6]
  Mass Protein per Eluate Fraction, 2% Acetic Acid: 0.31 mg
A1PI [2]; [8]
  Percent A1PI Eluted by Fraction Based on Absorbance at 280 nm, 1M NaCl: 64%
  Percent A1PI Eluted by Fraction Based on Absorbance at 280 nm, 2% Acetic Acid: 36%
  Percent A1PI Eluted by Fraction Based on Absorbance at 280 nm, Flowthrough: 0%
A1PI [2]; [9]
  Percent A1PI Eluted by Fraction, 1M NaCl: 75%
  Percent A1PI Eluted by Fraction, 2% Acetic Acid: 25%
  Percent A1PI Eluted by Fraction, Flowthrough: 0%

## A I F L V R: point mutation of VIFLVR, position 1 (AIFLVR)
A1PI [1]; Table 13
  Mass A1PI per Eluate Fraction, 1M NaCl: 0.07 mg
  Mass A1PI per Eluate Fraction, 2% Acetic Acid: 0.59 mg
  Mass A1PI per Eluate Fraction, Flowthrough: 0.33 mg
A1PI [1]; Table 13, A1PI
  Percent Eluted by Fraction, 1M NaCl: 7%
  Percent Eluted by Fraction, 2% Acetic Acid: 60%
  Percent Eluted by Fraction, Flowthrough: 33%
A1PI [2]; VIFLVR point mutations, 4° C.
  % of Total A1PI Eluted by Fraction (Based on Absorbance at 280 nm), 1M NaCl: 4%
  % of Total A1PI Eluted by Fraction (Based on Absorbance at 280 nm), 2% Acetic Acid: 96%
  % of Total A1PI Eluted by Fraction (Based on Absorbance at 280 nm), Flowthrough: 0%
A1PI [2]; VIFLVR point mutations, 20° C.
  % of Total A1PI Eluted by Fraction (Based on Absorbance at 280 nm), 1M NaCl: 3%
  % of Total A1PI Eluted by Fraction (Based on Absorbance at 280 nm), 2% Acetic Acid: 92%
  % of Total A1PI Eluted by Fraction (Based on Absorbance at 280 nm), Flowthrough: 5%

## K I F L V R: point mutation of VIFLVR, position 1 (KIFLVR)
A1PI [1]; Table 13
  Mass A1PI per Eluate Fraction, 1M NaCl: 0.03 mg
  Mass A1PI per Eluate Fraction, 2% Acetic Acid: 0.51 mg
  Mass A1PI per Eluate Fraction, Flowthrough: 0.32 mg
A1PI [1]; Table 13, A1PI
  Percent Eluted by Fraction, 1M NaCl: 3%
  Percent Eluted by Fraction, 2% Acetic Acid: 59%
  Percent Eluted by Fraction, Flowthrough: 38%
A1PI [2]; VIFLVR point mutations, 4° C.
  % of Total A1PI Eluted by Fraction (Based on Absorbance at 280 nm), 1M NaCl: 3%
  % of Total A1PI Eluted by Fraction (Based on Absorbance at 280 nm), 2% Acetic Acid: 97%
  % of Total A1PI Eluted by Fraction (Based on Absorbance at 280 nm), Flowthrough: 0%
A1PI [2]; VIFLVR point mutations, 20° C.
  % of Total A1PI Eluted by Fraction (Based on Absorbance at 280 nm), 1M NaCl: 0%
  % of Total A1PI Eluted by Fraction (Based on Absorbance at 280 nm), 2% Acetic Acid: 100%
  % of Total A1PI Eluted by Fraction (Based on Absorbance at 280 nm), Flowthrough: 0%
